According to patent publication US20240424125A1 (Zymeworks, published 2024):

Experiments:
human FRα on cells [1] = target: T1, human FRα on cells (human, UniProt P15328 25-234); assay: cell-based or functional assay
human FRα on cells [2] = target: T1, human FRα on cells; assay: cell-based or functional assay; remark: listed apart in the source

T1 sequence (P15328 25-234 limits assumed): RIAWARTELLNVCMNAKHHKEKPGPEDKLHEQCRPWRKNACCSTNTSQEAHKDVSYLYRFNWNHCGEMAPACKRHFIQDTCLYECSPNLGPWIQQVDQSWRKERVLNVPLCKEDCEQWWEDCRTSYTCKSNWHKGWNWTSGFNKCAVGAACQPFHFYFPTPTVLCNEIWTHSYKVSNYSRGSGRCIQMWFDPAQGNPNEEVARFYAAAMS

B1: v30384-MT-GGFG-Compound 140 (antibody, human IgG1, kappa)
heavy 1: EVQLLESGGGLVQPGGSLRLSCAVSGFSLSSYGVSWVRQAPGKGLEWIGAVNSGGSAYYADSVKGRSTISRDNSKNTVYLQMNSLRAEDTAVYYCARSGSGYPMDYLAIWGQGTLVTVSSASTKGPSVFPLAPSSKSTSGGTAALGCLVKDYFPEPVTVSWNSGALTSGVHTFPAVLQSSGLYSLSSVVTVPSSSLGTQTYICNVNHKPSNTKVDKKVEPKSCDKTHTCPPCPAPELLGGPSVFLFPPKPKDTLMISRTPEVTCVVVDVSHEDPEVKFNWYVDGVEVHNAKTKPREEQYNSTYRVVSVLTVLHQDWLNGKEYKCKVSNKALPAPIEKTISKAKGQPREPQVYVYPPSRDELTKNQVSLTCLVKGFYPSDIAVEWESNGQPENNYKTTPPVLDSDGSFALVSKLTVDKSRWQQGNVFSCSVMHEALHNHYTQKSLSLSPG
heavy 2: not shown
light: DYQMTQSPSSVSASVGDRVTITCRASQSIGDWLAWYQQKPGKAPKLLIYEASTLASGVPSRFSGSGSGTDFTLTISSVQPEDAATYYCQQGYGRSNVDNIFGGGTKVEVKRTVAAPSVFIFPPSDEQLKSGTASVVCLLNNFYPREAKVQWKVDNALQSGNSQESVTEQDSKDSTYSLSSTLTLSKADYEKHKVYACEVTHQGLSSPVTKSFNRGEC
modifications: drug-linker MT-GGFG-Compound 140 on the antibody at DAR 8; conjugated residues not stated
**Q.** How did the “EC50 (nM), in vitro cytotoxicity, 2D monolayer, JEG-3 cells, 4 days” value (human FRα on cells [1]) turn out when B1 was run?
**A.** 1.29 nM

**Q.** And the “EC50 (nM), in vitro cytotoxicity, 2D monolayer, KB-HeLa cells, 4 days” value (human FRα on cells [1])?
**A.** 3.75 nM

**Q.** And the “EC50 (nM), in vitro cytotoxicity, 2D monolayer, T-47D cells, 4 days” value (human FRα on cells [1])?
**A.** 12.4 nM

B2: v30384-MC-GGFG-Compound 140 (antibody, human IgG1, kappa)
heavy 1: EVQLLESGGGLVQPGGSLRLSCAVSGFSLSSYGVSWVRQAPGKGLEWIGAVNSGGSAYYADSVKGRSTISRDNSKNTVYLQMNSLRAEDTAVYYCARSGSGYPMDYLAIWGQGTLVTVSSASTKGPSVFPLAPSSKSTSGGTAALGCLVKDYFPEPVTVSWNSGALTSGVHTFPAVLQSSGLYSLSSVVTVPSSSLGTQTYICNVNHKPSNTKVDKKVEPKSCDKTHTCPPCPAPELLGGPSVFLFPPKPKDTLMISRTPEVTCVVVDVSHEDPEVKFNWYVDGVEVHNAKTKPREEQYNSTYRVVSVLTVLHQDWLNGKEYKCKVSNKALPAPIEKTISKAKGQPREPQVYVYPPSRDELTKNQVSLTCLVKGFYPSDIAVEWESNGQPENNYKTTPPVLDSDGSFALVSKLTVDKSRWQQGNVFSCSVMHEALHNHYTQKSLSLSPG
heavy 2: not shown
light: DYQMTQSPSSVSASVGDRVTITCRASQSIGDWLAWYQQKPGKAPKLLIYEASTLASGVPSRFSGSGSGTDFTLTISSVQPEDAATYYCQQGYGRSNVDNIFGGGTKVEVKRTVAAPSVFIFPPSDEQLKSGTASVVCLLNNFYPREAKVQWKVDNALQSGNSQESVTEQDSKDSTYSLSSTLTLSKADYEKHKVYACEVTHQGLSSPVTKSFNRGEC
modifications: drug-linker MC-GGFG-Compound 140 on the antibody at DAR 8; conjugated residues not stated
**Q.** What does the source list for B2?
**A.** 3D EC50 (nM), in vitro cytotoxicity, HEC-1-A spheroids, 6 days (human FRα on cells [2]): 6.7 nM; 3D EC50 (nM), in vitro cytotoxicity, IGROV-1 spheroids, 6 days (human FRα on cells [2]): 0.2 nM; 3D EC50 (nM), in vitro cytotoxicity, OVCAR-3 spheroids, 6 days (human FRα on cells [2]): 20.5 nM; 3D EC50 (nM), in vitro cytotoxicity, T-47D spheroids, 6 days (human FRα on cells [2]): 1.6 nM

B3: v30384-MT-GGFG-Compound 148 (antibody, human IgG1, kappa)
heavy 1: EVQLLESGGGLVQPGGSLRLSCAVSGFSLSSYGVSWVRQAPGKGLEWIGAVNSGGSAYYADSVKGRSTISRDNSKNTVYLQMNSLRAEDTAVYYCARSGSGYPMDYLAIWGQGTLVTVSSASTKGPSVFPLAPSSKSTSGGTAALGCLVKDYFPEPVTVSWNSGALTSGVHTFPAVLQSSGLYSLSSVVTVPSSSLGTQTYICNVNHKPSNTKVDKKVEPKSCDKTHTCPPCPAPELLGGPSVFLFPPKPKDTLMISRTPEVTCVVVDVSHEDPEVKFNWYVDGVEVHNAKTKPREEQYNSTYRVVSVLTVLHQDWLNGKEYKCKVSNKALPAPIEKTISKAKGQPREPQVYVYPPSRDELTKNQVSLTCLVKGFYPSDIAVEWESNGQPENNYKTTPPVLDSDGSFALVSKLTVDKSRWQQGNVFSCSVMHEALHNHYTQKSLSLSPG
heavy 2: not shown
light: DYQMTQSPSSVSASVGDRVTITCRASQSIGDWLAWYQQKPGKAPKLLIYEASTLASGVPSRFSGSGSGTDFTLTISSVQPEDAATYYCQQGYGRSNVDNIFGGGTKVEVKRTVAAPSVFIFPPSDEQLKSGTASVVCLLNNFYPREAKVQWKVDNALQSGNSQESVTEQDSKDSTYSLSSTLTLSKADYEKHKVYACEVTHQGLSSPVTKSFNRGEC
modifications: drug-linker MT-GGFG-Compound 148 on the antibody at DAR 8; conjugated residues not stated
**Q.** For B3, which “EC50 (nM), in vitro cytotoxicity, 2D monolayer, JEG-3 cells, 4 days” value (human FRα on cells [1]) is on record?
**A.** 0.54 nM

**Q.** And the “EC50 (nM), in vitro cytotoxicity, 2D monolayer, KB-HeLa cells, 4 days” value (human FRα on cells [1])?
**A.** 0.73 nM

**Q.** And the “EC50 (nM), in vitro cytotoxicity, 2D monolayer, T-47D cells, 4 days” value (human FRα on cells [1])?
**A.** 3.45 nM
